Measured values taken from patent publication US20220041685A1 (SUNNYBROOK RESEARCH INSTITUTE, published 2022).

Columns and labels:
[1] = molecular target: putative VISTA-receptor on murine T-cells (2.10 T-cell clone; primary CD4+ T-cells) (mouse); assay: cell-based or functional assay
hICOS-Fc (R&D Systems) [2] = molecular target: T1, hICOS-Fc (R&D Systems) (human, UniProt Q9Y6W8 21-141, limits assumed); assay: SPR single cycle kinetics (Biacore T200), hICOS-Fc immobilized on a CM5 chip, 1:1 model
T1 construct: Bought from R&D Systems; also called human ICOS; not shown: Fc part of a bought fusion protein; not described
T1 sequence (looked up): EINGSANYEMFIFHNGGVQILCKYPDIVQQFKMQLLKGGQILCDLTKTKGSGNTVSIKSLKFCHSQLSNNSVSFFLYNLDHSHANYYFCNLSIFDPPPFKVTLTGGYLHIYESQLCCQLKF

hICOS-Fc (R&D Systems) [3] = molecular target: T1, hICOS-Fc (R&D Systems); assay: SPR single cycle kinetics (Biacore T200), hICOS-Fc immobilized on a CM5 chip

VISTA-Fc (murine VISTA extracellular domain fused to the human IgG-1 Fc region; dimeric) (Fc fusion)
anti-CD3-induced 2.10 cell proliferation (3H-thymidine) [1]: > 30 µg/mL

murine VISTA.COMP pentamer, histidine tagged (VISTA.COMP.his) (ligand)
anti-CD3-induced 2.10 cell proliferation (3H-thymidine) [1]: 1 µg/mL

B1: hICOSL-Fc (R&D Systems), dimeric human ICOS-L ECD Fc fusion (Fc fusion, not shown: a dimerising Fc or GST; small tags and cut ends)
chain: DTQEKEVRAMVGSDVELSCACPEGSRFDLNDVYVYWQTSESKTVVTYHIPQNSSLENVDSRYRNRALMSPAGMLRGDFSLRLFNVTPQDEQKFHCLVLSQSLGFQEVLSVEVTLHVAANFSVPVVSAPHSPSQDELTFTCTSINGYPRPNVYWINKTDNSLLDQALQNDTVFLNMRGLYDVVSVLRIARTPSVNIGCCIENVLLQQNLTVGSQTGNDIGERDKITENPVSTGEKNAATWS
modifications: Fc-mediated dimer (two copies); the Fc is left out.
Kd (hICOS-Fc (R&D Systems) [2]): 2.9 nM

B2: human ICOS-L.COMP pentamer (human ICOS-L extracellular domain fused to the COMP pentamerization domain, C-terminal histidine tag) (ligand)
chain: DTQEKEVRAMVGSDVELSCACPEGSRFDLNDVYVYWQTSESKTVVTYHIPQNSSLENVDSRYRNRALMSPAGMLRGDFSLRLFNVTPQDEQKFHCLVLSQSLGFQEVLSVEVTLHVAANFSVPVVSAPHSPSQDELTFTCTSINGYPRPNVYWINKTDNSLLDQALQNDTVFLNMRGLYDVVSVLRIARTPSVNIGCCIENVLLQQNLTVGSQTGNDIGERDKITENPVSTGEKNAATWSDLGPQMLRELQETNAALQDVRELLRQQVREITFLKNTVMECDACG
Kd (hICOS-Fc (R&D Systems) [2]): 0.9 nM
fold stronger KD than hICOSL-Fc (hICOS-Fc (R&D Systems) [3]): ~3 fold
